Two substances from patent US7022488 can be followed below.

In one test the target is Gs. As to the kind of experiment: cell-based or functional assay.
For a further test, the target named is Gi proteins. Description: cell-based or functional assay.

Substance “human umami taste receptor hT1R1/hT1R3 (from UniProt Q7RTX1 21-841; Q7RTX0 21-852)” showed an increase in cAMP levels after pertussis toxin treatment with Gs of 25%. In the case of “β-adrenergic receptor (β2AR) (from UniProt P07550 1-413)”, the increase of the isoproterenol cAMP response after pertussis toxin treatment with Gi proteins is more than 17 fold.
